These results are taken from patent CN117088975A.

This assay has as its target ALB蛋白(天然提取). Description: AMC sensor, antibody immobilised at 10 ug/ml, ALB in gradient dilution in PBST.

B1: Anti-ALB-2G9mut2 (antibody, mouse IgG1, kappa, V domains shown)
VH: QVQLQQSGAELVRPGSSVKISCKASGYAFSNYWMNWVKQRPGQGLEWIGQIYPGDGDTYYNGRFKGKATITADKSPTTAYMQLSSLTSEDSAVYVCARGVLLGSFDYWGQGTTLTVSS
VL: QIVLTQSPAIMSASPGEKVTMTCSASSSVSYMHWYQQKSGTSPKRWIYDTSKLASGVPVRFSGSGSGTSYSLTIRSMEAEDAATYYCQQWGSNPLTFGAGTKLELKR
B1: the Kd is 1.85 nM, the koff came to 0.00241 s⁻¹ and the kon stood at 1.3e+06 M⁻¹ s⁻¹.

Usually Kd stands for a measure of binding affinity in units of concentration. Lower therefore signals a tighter complex. One may read the koff as the rate constant with which the complex falls apart. Low values mean slow dissociation, high ones fast dissociation. Usually kon stands for a measure of how fast the partners come together. A high value points to faster complex formation.
